Patent publication US20050182242A1, “Global analysis of protein activities using proteome chips” (priority 2001, published 2005)

Columns and labels:
Details in all cases: liposome binding signal on yeast proteome chip, Cy3-streptavidin detection
[1] = test system: PI(3)P liposomes; assay: Yeast proteome chip probed with PI(3)P liposomes
[2] = test system: PI(4,5)P2 liposomes; assay: Yeast proteome chip probed with PI(4,5)P2 liposomes
[3] = test system: PI(4)P liposomes; assay: Yeast proteome chip probed with PI(4)P liposomes
[4] = test system: phosphatidylcholine (PC) liposomes; assay: Yeast proteome chip probed with PC liposomes
Procedure, shortened: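 Binding of arrayed yeast proteins to sonicated PC liposomes, with or without 5% (w/w) phosphoinositide, is scored by streptavidin fluorescence on the biotinylated lipid tracer.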

[5] = test system: PI(3,4,5)P3 liposomes; assay: Yeast proteome chip probed with PI(3,4,5)P3 liposomes
[6] = test system: PI(3,4)P2 liposomes; assay: Yeast proteome chip probed with PI(3,4)P2 liposomes

Molecule	PI(3)P [1]	PI(4, 5)P2 [2]	PI(4)P [3]	PC [4]	PI(3, 4, 5)P3 [5]	PI(3, 4)P2 [6]
RGD1: yeast GST-HisX6 fusion protein on proteome chip (protein, UniProt P38339 1-666, looked up, GST-His6 tag, yeast GST-HisX6 fusion protein on proteome chip) RHO GTPase-activating protein …: MEETAKKPASATVSAKSSHDGGTDDLAHLFSTPEIKKVLNSDVAINALLSRLKQSLLTCEEFMKFIRKKYAFEEEHVQELSKQYKHFFNIQGSTNSSLKKMIHEVLGFDGKMAQVKQSYITALQKMYSEISSLLLTMTKLRKSVKENSKRLEKDVSDAIHSAEKAQSRYNSLCQDWDKLRMTDPTKTKLTLRGSKTTKEQEEELLRKIDNADLEYKQKVDHSNSLRNTFITKERPRIVQELKDLILEIDTAMTIQLQKYTIWTENLVLNTGVTISPLDSTKSMKSFAGSVSNERDLYSFLNKYNQTGKHSLLINKNLIPVSYKKHPSMNHGQKNKSPPKFAVDPSRNSIPKRMISTHNESPFLSSSSNTAAVPNANLNSATPSLNTNKQLPPTMASSISSTSNAAGAMSPSSSIVTSDTTSSITKTLDPGNNSPQIPEELINSLDSDRPISHIQTNNNMPPGVQKNFKTFGVPLESLIEFEQDMVPAIVRQCIYVIDKFGLDQEGIYRKSANVLDVSKLKEEIDKDPANISMILPSKPHSDSDIYLVGSLLKTFFASLPDSVLPKALSSEIKVCLQIEDPTTRKNFMHGLIYNLPDAQYWTLRALVFHLKRVLAHEAQNRMNLRALCIIWGPTIAPANPDDANDVNFQIMAMEVLLEVSDQAFEPE	6.00	55.31	127.60	54.59	19.35	54.31
RPH1: yeast GST-HisX6 fusion protein on proteome chip (protein, UniProt P39956 1-796, looked up, GST-His6 tag, yeast GST-HisX6 fusion protein on proteome chip) DNA damage-responsive …: MTKLIAPSEIVGGVPVFKPTYEQFEDFYAYCKAINKYGMKSGVVKVIPPKEWKDKLDLPYSAETLQKIKIKSPIQQHISGNKGLFMVQNVEKNKTYNIIQWKDLSKDYVPPEDPKARRNSRKGSVSKSTKLKLKNFESSFNIDDFEQFRTEYTIDLSDFQNTERLKFLEEYYWKTLNFTTPMYGADTPGSIFPEGLNVWNVAKLPNILDHMETKVPGVNDSYLYAGLWKASFSWHLEDQDLYSINYIHFGAPKQWYSIPQEDRFKFYKFMQEQFPEEAKNCPEFLRHKMFLASPKLLQENGIRCNEIVHHEGEFMITYPYGYHAGFNYGYNLAESVNFALEEWLPIGKKAGKCHCISDSVEIDVKKLAKSWRDNNKESKGTPPLNQLPNPAMPLLHRPTLKEMESSSLRSTSPDVGHFSNFKSKSSGVSSPLLSRMKDYSNIVEPTLEDPTLKLKRISSFQEQPLNKLLKRETSQTAMLTDHEDNIVAMSLTSMANSAASSPRLPLSRLNSSNELSNAQPLLDMTNNTLAFPRPNGPSGLNPLLYISNKNISGISHSAPHSPVNPNISLIKRVKSPNIVTLNISRESSRSPIALNYEARQQHSQQHSFSTPSTVSNLSTSVLGPLSDTNDIKTPHPERPNHKTANRILKKESPVETSKSNLILSKVASTRQEDSFTSRNDDLDKEQGSSPLNSKFAPEEIVLSGKNKIYICKECQRKFSSGHHLTRHKKSVHSGEKPHSCPKCGKRFKRRDHVLQHLNKKIPCISNETTVDAPIMNPTVQPQDGKAAINQQSTPLN	6.00	18.73	66.19	56.93	9.90	90.73
